Tested on: MS2 coat protein
Assay: apparent KD of MS2 coat protein; higher = weaker reporter binding
Conditions: Eterna round: R107
Experimental: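 RNA-MaP round R107: designed RNA switches with theophylline, tryptophan, arginine or FMN aptamers are transcribed on-chip within common flanks. They are titrated with SNAP-549-labelled MS2 coat protein in RNA-MaP buffer (100 mM Tris pH 7.5, 80 mM KCl, 4 mM MgCl2), without ligand or with the indicated ligand. Median apparent KD per design.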

[1] = input ligand: theophylline 20 uM
[2] = input ligand: theophylline 2 mM
[3] = input ligand: tryptophan 2.4 mM

Row | Sequence | apparent KD of MS2 coat protein (input ligand: arginine 13.2 mM) [nM] | apparent KD of MS2 coat protein [1] [nM] | apparent KD of MS2 coat protein [2] [nM] | apparent KD of MS2 coat protein [3] [nM] | apparent KD of MS2 coat protein (input ligand: none) [nM]
1 | CCGUUCUCUGCGGCCGCCACUCAAGGAGCUACAUAGCUCCUAGACAUGAGGAUCACCCAUGUCGCGAGGACCGGGUAGAUUCUCC [Same State Typptophan B GF9] | 34.4 | 63.6 | 64.2 | – | –
2 | GGUAUGUAUUCGGAAACGAAUGCAUACCAACGAGGACCGGUACGGCCGCCACUCGGGCCGUGAUCACAUGAGGAUCACCCAUGUA [Ex Tryptophan A 5] | 29.8 | 49.2 | 42.3 | – | –
3 | GCGUGUUAUAGUCAUCGUGAGCGUCCAUCCCGAGGACCGGUACGGCCGCCACUCGCCACAGGACAUGAGGAUCACCCAUGUUAUG [theeternabot_exclusion_MS2_Trp_A_3] | 9.62 | 16.8 | 13.8 | – | –
4 | UCGUGUGUUUCGGAUACCAGUGAAAUCGAUACAUGAGGAUCACCCAUGUGAGAGGAUGUACACCCUUGGCAGCUGUCUGUAGCGG [asczmullin] | 26.9 | 38 | – | 38.3 | –
5 | ACUAGUUGUGCAGAUACCAGACAUGAGGAUCACCCAUGUUUGGGAUCUAAUGAUCAUCCUGUCCCUUGGCAGCUGUACAUCUAGA [Omei Theo B Exc v2] | 51.9 | 234 | – | 89.9 | –
6 | AGACGAGAAGAGGUUUACCCAUGUACAGAAGGAGCGUCGUUGACGACAGGUAGGUCGCUGGAAACAUGAGGAUCACCCAUGUUGA [#06 Exclusion - Arginine A] | 27.4 | 49.1 | 59.7 | 48.3 | 40.8
7 | AGAUAACAUGGUUUAAUAAGUUAAACUGAUACCAGUGUAUAUAAUCACCCUUGGCAGCAGCAACAUGAGGAUCACCCAUGUAAUA [JR_SSTheophyA_Sub013] | 16.2 | 19.9 | – | 19.6 | –
8 | UUAAUCAUGGAUGAAAACAUUUAUGCAGAAGGAGCGUGAUAAAACACAGGUAGGUCGCUGAAGGGAACAUGAGGAUCACCCAUGU [AstrosSSArgA#17] | 35.9 | 74.5 | 69.5 | 41.3 | 65.1
9 | AUAACAUGAGGAUCACCCAUGUAAGCAGAUACCAGCUAGGAAACUAGCCCUUGGCAGCUGCAAGGUGAUCCUAGGUAUCUGCAAU [(M1)-(M2)-(T1)-(T2)-(M)'-(T)'_Design6] | 30.4 | 49.3 | 52.2 | 25.9 | 24.7
10 | AGAGUCAGACAAAAGUCUGGCUCAGCCGAAGGAGCGUCCGAAAGGACAGGUAGGUCGCGGUUACUUGAGGAUCACCCAAGUUCCU [ArgAS 26 #OpenEnded #AlternativeMS2] | 69 | 151 | 177 | 144 | 163
11 | CCAUAGCUAGGAAGGAGCGCAUACUUCACAUGAGGAUCACCCAUGUCGAGACGUGAGUCAGUGCAGGUAGGUCGCCUAGCUAUGG [Same State - Arginine B (Freestyle 29)] | 18.1 | 24.2 | 25.5 | 20.6 | 18.6
12 | UUAGCACAUGAGGAUCACCCAUGUCUCGAUACCAGAUAAGUUCCGAUCCCUUGGCAGCGACAAGCUUGCAAACUGCGACUAUUCU [theeternabot_sameState_MS2_Theo_A_42] | 22.2 | 32.2 | – | 24.8 | –
13 | GGUUACUCUACGGCCGCCACUGGGCAUGUAAAUAACAUGAGGAUCACCCAUGUGGAAUAAAAUUACAGGACCGGGUAGUGUAACC [Tryptophan B 22] | 105 | 270 | 352 | – | –
14 | AAUAAUAGGUGAUCCUGACGAGUGGCAUAACGAGGACCGGUACGGCCGCCACUCGAACAUGAGGAUCACCCAUGUAGCCACUCGA [M'-T'-T-MS2-T'' - Design 5.b] | 32 | 327 | 685 | – | –
15 | UUCUUUAAGUCGGCCGCCACUGAAACAUGAGGAUCACCCAUGUAUAUUUGUGUAAAGGUGGAUUACAGGACCGGGACUAUAGUAA [JR_Nu23_ExcTryptoB_Sub024] | 12.1 | 13.6 | 11.7 | – | –
16 | UAAUAAAUAAAUCCAAGGUGAAGGUCAGAUACCAGCCAGAUAACUGGCCCUUGGCAGCUGAAUAAGCUUGAGGAUCACCCAAGUA [TheoAS 26 #OpenEnded #MS2Late #AlternativeMS2] | 27.5 | 68.4 | 275 | 32.8 | –
17 | AUAACAUGAGGAUCACCCAUGUAAGCAGAUACCAGCUAGGAAACUAGCCCUUGGCAGCUGCAAUCCUCAUGUAUUGCAGCUGCAA [(M1)-(M2)-(T1)-(T2)-(M)'-(T)'_Design1] | 21.5 | 26.2 | – | 15.3 | –
18 | CUCCGAGGCUAUACUAUACGCCUUUGUGAUACCAGAAUAAAUAUAUUCCCUUGGCAGCAUCACAUGAGGAUCACCCAUGUGCCAU [SSTheo A #12] | 15.7 | 27.7 | – | 12.4 | –

Row | Sequence | apparent KD of MS2 coat protein (input ligand: arginine 13.2 mM) [nM] | apparent KD of MS2 coat protein [1] [nM] | apparent KD of MS2 coat protein [2] [nM] | apparent KD of MS2 coat protein [3] [nM] | apparent KD of MS2 coat protein (input ligand: none) [nM]
19 | CUCUGAGUGAGUAAUCACUCAGAGGCGGAUACCAGCGAGGUCCAUCGCCCUUGGCAGCCGAACAUGAGGAUCACCCAUGUCGGUA [#1 Same State - Theophylline A Attempt #24 (HarryS)] | 8.82 | 12.2 | – | 11.7 | –
20 | CGCAACCCUAAGGGAUUGUGGUUAUUAGAUACCAGUAUGAUGCAAUACCCUUGGCAGCUAAUACAUGAGGAUCACCCAUGUUGCG [Th A Ex t2] | 13.6 | 20.2 | – | 16.8 | –
21 | AAUGGCCGUACCGGAAGGGUGAUCCUCAAACGAGGACCGGUACGGCCGCCACUCGAUAACAUGAGGAUCACCCAUGUAAUACAUA [whbob_X-Trypto_V2.0] | 96.4 | 405 | 699 | – | –
22 | ACGAUAGCACCUGAGGAUCACCCAGGUGAUACCAGCCUGGAAACAGGCCCUUGGCAGCACCUAAAAUAAAGGUAACUAUCGAAUA [TheoAX6 #MicroSwitchBubble #AlternativeMS2] | 57.3 | 251 | 105 | 48.6 | 50.6
23 | AACCACAUGAGGAUCACCCAUGUGACCGCUCGAGGACCGGUACGGCCGCCACUCGUGGAGGGACUUAUGCGUUAUCCGGGUAAAU [theeternabot_sameState_MS2_Trp_A_29] | 16.9 | 27 | 20.9 | – | –
24 | UUUUAGCAUCGAAGGAGCGCUGGUAGGUGACACAUGAGGAUCACCCAUGUGCUCCUUGCCGAGCAGGUAGGUCGCGAUGCUAUUU [SSAB NP+V+V2 #8] | 31.4 | 62.9 | 73.3 | 46.2 | 52.6
25 | GCACCAGGUACGGAUACCAGCUAUAGGCCCUAUGGGCGACAUGAGGAUCACCCAUGUAAUGGCCCUUGGCAGCUGUACCUGGUGC [SSThB NP+V+V2 #10 +-Same Structure] | 120 | 97.3 | – | 169 | –
26 | CGAGUAAGUUCAAUCGAAUAACGGUUUUCGCGAGGACCGGUACGGCCGCCACUCGUGUGAUAUCACACAUGAGGAUCACCCAUGU [3'end-1] | 42.7 | 77.1 | 135 | – | –
27 | GCACAUGAGGAUCACCCAUGUACAACUGAAGGAGCGAGACAGAACUCAGGUAGGUCGCAGAAUGCACAAUAGCAUACGACAUGGG [Exclusion Arginine A GF20] | 20.2 | 52.1 | 23.8 | 24.2 | 20.8
28 | ACGACGCAUAGUGAUACCAGUAGAACAUGAGGAUCACCCAUGUCUGUGACGCACCACCUCUGCCCUUGGCAGCACUAUGCGUCAG [SSTheo B #8] | 22.3 | 30.3 | – | 23 | –
29 | UGUUUGGUGCGCGAGUGUUGGAUGAUUGAUACCAGUGAAGAAGAGCGCCCUUGGCAGCGAAUCCUAACAUGAGGAUCACCCAUGU [5.V] | 39.3 | 57.7 | – | 51.4 | –
30 | GUAGGUCUCAUGGGUGGACCUACACUGGAAGGAGCGAGCGAAAGCUCAGGUAGGUCGCCAGAAACAUGAGGAUCACCCAUGUAAU [(A)''-(M)'-(A)'-(Arg1)-(Arg2)-(M1)-(M2)_Design1] | 72.3 | 144 | 288 | 320 | 360
31 | GCGGUCGGAGUGCGGCGUGUUCCGCUCCGUCGAGGACCGGUACGGCCGCCACUCGACAUGAGGAUCACCCAUGUCCGACCGCGCG [#1 Exclusion - Tryptophan A Attempt #5 (HarryS)] | 18.4 | 66.5 | 28.8 | 6.86 | 13.4
32 | AUCGUACCUGAUGAUACCAGCAUGUGCUCGUAACAUGAGGAUCACCCAUGUGAUCAGUGAUGCCCUUGGCAGCAUGAUCGGUGCA [Same State - Theophylline B (Freestyle 18)] | 94 | 134 | – | 167 | –
33 | UAUAUAUAUAUGGAUACCAGCAGAGAAAACGUUUAUCCUAACAUGAGGAUCACCCAUGUAUGCCCUUGGCAGCUGUGUAUAUAUA [8.H] | 16.7 | 26.5 | – | 19.2 | –
34 | AGGACAUGAGGAUCACCCAUGUACACUGAAGGAGCGUCGAGAACGACAGGUAGGUCGCAGGCUAAGGAAGGUGAUGCUCAAGAAG [Exclusion Arginine A GF6] | 28.2 | 40.9 | 29.8 | 27.1 | 26.2
35 | AUGCAUAGCCGAAGGAGCGCAGUAGGAUGACAUGAGGAUCACCCAUGUGUGUGAUGUGGAUUGCAGGUAGGUCGCGGAGUGGUAU [Exclusion - Arginine B (Freestyle 5)] | 47 | 128 | 119 | 58 | 119
36 | UUUGAGAUAACAGAUACCAGCGUGUUAUAAAACAUGAGGAUCACCCAUGUAGUGAUCAAGCGCCCUUGGCAGCUGGUGUUUUAGG [7.H] | 21.1 | 383 | 469 | 141 | 102

— the supplement of paper PMC9170038
